The experiment addresses T1, human C1q (human, UniProt P02745 23-245; P02746 28-253; P02747 29-245).
T1 construct: The assay used recombinant human C1q (Abd Serotec, 0.2 ug/ml) or C1q from natural human complement (Sigma); It was detected with sheep anti-human C1q-peroxidase on plates coated with the MAb; also called recombinant human C1q; human complement
The experiment can be described thus: ELISA, C1q on coated MAb. In general terms: In an ELISA, binding on a coated surface is turned into a signal by an enzyme label.

T1 sequence (P02745 23-245 limits assumed, chain 1 of 3): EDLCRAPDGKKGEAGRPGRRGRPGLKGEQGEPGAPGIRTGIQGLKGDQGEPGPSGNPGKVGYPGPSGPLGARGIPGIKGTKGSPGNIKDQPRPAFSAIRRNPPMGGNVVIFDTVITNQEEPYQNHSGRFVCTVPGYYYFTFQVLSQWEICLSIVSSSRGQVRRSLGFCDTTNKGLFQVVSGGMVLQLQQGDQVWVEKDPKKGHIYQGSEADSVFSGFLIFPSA
T1 sequence (P02746 28-253 limits assumed, chain 2 of 3): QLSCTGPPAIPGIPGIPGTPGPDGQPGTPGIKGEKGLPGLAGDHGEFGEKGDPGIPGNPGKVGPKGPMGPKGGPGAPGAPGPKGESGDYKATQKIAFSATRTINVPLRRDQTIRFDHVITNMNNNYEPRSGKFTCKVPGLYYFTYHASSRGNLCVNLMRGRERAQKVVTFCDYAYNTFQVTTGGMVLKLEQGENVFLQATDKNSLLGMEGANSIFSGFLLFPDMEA
T1 sequence (P02747 29-245 limits assumed, chain 3 of 3): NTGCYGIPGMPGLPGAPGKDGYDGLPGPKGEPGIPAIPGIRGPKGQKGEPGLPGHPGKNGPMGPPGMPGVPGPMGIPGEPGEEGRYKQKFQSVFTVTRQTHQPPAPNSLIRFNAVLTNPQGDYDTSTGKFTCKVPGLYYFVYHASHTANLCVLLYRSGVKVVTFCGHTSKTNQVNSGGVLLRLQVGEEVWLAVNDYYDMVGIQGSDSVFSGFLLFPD
Method: The binding of human recombinant C1q was assessed by an ELISA binding assay. […] Data represent mean+/−SD of two independent experiments.
Complement binding assay: The binding of human C1q to MAbs was assessed by an ELISA binding assay. The 96-well plates (Nunc) were coated overnight at 4° C. with varying MAb concentrations. After washing, the plates were blocked with PBS-5% BSA for 1 h, and incubated for 1 h with 0.2 μg/ml of recombinant human C1q (Abd Serotec) or 2.5 μl of natural human complement (Sigma). Then, 100 μl of a 1/500 dilution of sheep anti-human C1q peroxidase-conjugated Ab (Abd Serotec) added and incubated for 1 h. The plates were developed with 100 μl per well of TMB substrate (Uptima Interchim). After H₂S0₄ addition, the OD was measured at 450 nm/630 nm using a MRX II microplate reader.

B1: chR005-1 Fc24 (antibody)
heavy: QVQLQQSGAELVRPGSSVKISCKASGYAFSSYWVNWMKQRPGQGLEWIGQIYPGDGDTNYNGKFKGRATVTADKSSSTSYMQFSSLTSEDSAVYFCARSITTVVGCAMDYWGQGTSVTVSSASTKGPSVFPLAPSSKSTSGGTAALGCLVKDYFPEPVTVSWNSGALTSGVHTFPAVLQSSGLYSLSSVVTVPSSSLGTQTYICNVNHKPSNTKVDKKVEPKSCDKTHTCPPCPAPELLGGPSVFLLPPKPKDTLMISRTPEVTCVVVDVSHEDPEVKFNWYVDGVEVHNAKTKPPEEQYNSTLRVVSLLTVLHQDWLNGKEYKCKVSNAALPAPIAKTISKAKGQPREPQVYTLPPSRDELTKNQVSLTCLVKGFYPSDIAVEWESNGQPENNYKTTPLVLDSDGSFFLYSKLTVDKSRWQQGNVFSCSVMHEALHNHYTQKSLSLSPGK
light: DIQMTQSSAYLSVSLGGRVTITCKASDHINNWLAWYQHKPGNAPRLLISGATTLETGVPSRFSGSGSGKDYTLSITSLQTEDVATYYCQQSWNTPWTFGGGTK
notes: Chimeric human IgG1 with variant Fc24 (F243L/R292P/Y300L/V305L/K326A/E333A/P396L against Fc0); also called chR005-1 Fc24 MAb; Fc24 optimized chR005-1 MAb; not shown: human light chain constant region
For the molecule B1, the binding result is listed as “binds”.

B2: chR005-1 Fc34 (antibody)
heavy: QVQLQQSGAELVRPGSSVKISCKASGYAFSSYWVNWMKQRPGQGLEWIGQIYPGDGDTNYNGKFKGRATVTADKSSSTSYMQFSSLTSEDSAVYFCARSITTVVGCAMDYWGQGTSVTVSSASTKGPSVFPLAPSSKSTSGGTAALGCLVKDYFPEPVTVSWNSGALTSGVHTFPAVLQSSGLYSLSSVVTVPSSSLGTQTYICNVNHKPSNTKVDKKVEPKSCDKTHTCPPCPAPELLGGPSVFLLPPKPKDTLMISRTPEVTCVVVDVSHEDPEVKFNWYVDGVEVHNAKTKPPEEQYNSTLRVVSLLTVLHQDWLNGKEYKCKVSNAALPAPIEKTISKAKGQPREPQVYTLPPSRDELTKNQVSLTCLVKGFYPSDIAVEWESNGQPENNYKTTPLVLDSDGSFFLYSKLTVDKSRWQQGNVFSCSVMHEALHNHYTQKSLSLSPGK
light: DIQMTQSSAYLSVSLGGRVTITCKASDHINNWLAWYQHKPGNAPRLLISGATTLETGVPSRFSGSGSGKDYTLSITSLQTEDVATYYCQQSWNTPWTFGGGTK
notes: Chimeric human IgG1 with variant Fc34 (F243L/R292P/Y300L/V305L/K326A/P396L against Fc0); also called chR005-1 Fc34 MAb; Fc34 LPLLAL; not shown: human light chain constant region
On to B2, for which the binding result is listed as “binds”.
